T1: recombinant monkey TfR (r monkey TfR: Sino Biological Inc.), crab-eating monkey TfR extracellular region with … (crab-eating monkey (Macaca fascicularis))
T1 construct: Bought from Sino Biological; also called r monkey TfR-ECD (Histag); not shown: histidine tag at the N-terminus
T1 chain: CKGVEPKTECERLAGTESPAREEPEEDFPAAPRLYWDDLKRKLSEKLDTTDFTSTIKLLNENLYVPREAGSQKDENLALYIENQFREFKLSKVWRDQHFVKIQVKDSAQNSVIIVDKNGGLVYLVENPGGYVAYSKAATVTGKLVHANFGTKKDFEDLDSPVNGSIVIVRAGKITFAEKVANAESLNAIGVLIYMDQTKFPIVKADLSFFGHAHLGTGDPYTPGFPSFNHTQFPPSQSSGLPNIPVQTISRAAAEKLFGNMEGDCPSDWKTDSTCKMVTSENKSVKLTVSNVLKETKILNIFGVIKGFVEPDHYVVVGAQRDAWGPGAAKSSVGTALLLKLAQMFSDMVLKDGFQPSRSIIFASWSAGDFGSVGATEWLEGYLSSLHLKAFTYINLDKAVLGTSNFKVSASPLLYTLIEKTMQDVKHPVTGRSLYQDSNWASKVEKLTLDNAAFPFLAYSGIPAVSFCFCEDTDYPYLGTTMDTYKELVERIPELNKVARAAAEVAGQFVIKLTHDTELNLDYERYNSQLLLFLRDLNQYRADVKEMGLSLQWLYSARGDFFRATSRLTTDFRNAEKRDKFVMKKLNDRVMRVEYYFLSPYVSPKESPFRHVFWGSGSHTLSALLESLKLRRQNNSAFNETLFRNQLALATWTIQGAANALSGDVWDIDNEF

B1: Fab GS3-IDUA (other)
light: DIVMTQTPLSLSVTPGQPASISCRSSQSLVHSNGNTYLHWYLQKPGQSPQLLIYKVSNRFSGVPDRFSGSGSGTDFTLKISRVEAEDVGVYYCSQSTHVPWTFGQGTKVEIKRTVAAPSVFIFPPSDEQLKSGTASVVCLLNNFYPREAKVQWKVDNALQSGNSQESVTEQDSKDSTYSLSSTLTLSKADYEKHKVYACEVTHQGLSSPVTKSFNRGEC
heavy: EVQLVQSGAEVKKPGESLKISCKGSGYSFMNYWLGWVRQMPGKGLEWMGDIYPGGDYPTYSEKFKVQVTISADKSISTAYLQLSSLKASDTAMYYCARSGNYDEVAYWGQGTLVTVSSASTKGPSVFPLAPSSKSTSGGTAALGCLVKDYFPEPVTVSWNSGALTSGVHTFPAVLQSSGLYSLSSVVTVPSSSLGTQTYICNVNHKPSNTKVDKKVEPKSCDKTHTGGGGSGGGGSGGGGSAEAPHLVHVDAARALWPLRRFWRSTGFCPPLPHSQADQYVLSWDQQLNLAYVGAVPHRGIKQVRTHWLLELVTTRGSTGRGLSYNFTHLDGYLDLLRENQLLPGFELMGSASGHFTDFEDKQQVFEWKDLVSSLARRYIGRYGLAHVSKWNFETWNEPDHHDFDNVSMTMQGFLNYYDACSEGLRAASPALRLGGPGDSFHTPPRSPLSWGLLRHCHDGTNFFTGEAGVRLDYISLHRKGARSSISILEQEKVVAQQIRQLFPKFADTPIYNDEADPLVGWSLPQPWRADVTYAAMVVKVIAQHQNLLLANTTSAFPYALLSNDNAFLSYHPHPFAQRTLTARFQVNNTRPPHVQLLRKPVLTAMGLLALLDEEQLWAEVSQAGTVLDSNHTVGVLASAHRPQGPADAWRAAVLIYASDDTRAHPNRSVAVTLRLRGVPPGPGLVYVTRYLDNGLCSPDGEWRRLGRPVFPTAEQFRRMRAAEDPVAAAPRPLPAGGRLTLRPALRLPSLLLVHVCARPEKPPGQVTRLRALPLTQGQLVLVWSDEHVGSKCLWTYEIQFSQDGKAYTPVSRKPSTFNLFVFSPDTGAVSGSYRVRALDYWARPGPFSDPVPYLEVPVPRGPPSPGNP
notes: also called Fab HC-GS3-IDUA
B2: Fab GS3-GBA (other)
light: B1 light
heavy: EVQLVQSGAEVKKPGESLKISCKGSGYSFMNYWLGWVRQMPGKGLEWMGDIYPGGDYPTYSEKFKVQVTISADKSISTAYLQLSSLKASDTAMYYCARSGNYDEVAYWGQGTLVTVSSASTKGPSVFPLAPSSKSTSGGTAALGCLVKDYFPEPVTVSWNSGALTSGVHTFPAVLQSSGLYSLSSVVTVPSSSLGTQTYICNVNHKPSNTKVDKKVEPKSCDKTHTGGGGSGGGGSGGGGSARPCIPKSFGYSSVVCVCNATYCDSFDPPTFPALGTFSRYESTRSGRRMELSMGPIQANHTGTGLLLTLQPEQKFQKVKGFGGAMTDAAALNILALSPPAQNLLLKSYFSEEGIGYNIIRVPMASCDFSIRTYTYADTPDDFQLHNFSLPEEDTKLKIPLIHRALQLAQRPVSLLASPWTSPTWLKTNGAVNGKGSLKGQPGDIYHQTWARYFVKFLDAYAEHKLQFWAVTAENEPSAGLLSGYPFQCLGFTPEHQRDFIARDLGPTLANSTHHNVRLLMLDDQRLLLPHWAKVVLTDPEAAKYVHGIAVHWYLDFLAPAKATLGETHRLFPNTMLFASEACVGSKFWEQSVRLGSWDRGMQYSHSIITNLLYHVVGWTDWNLALNPEGGPNWVRNFVDSPIIVDITKDTFYKQPMFYHLGHFSKFIPEGSQRVGLVASQKNDLDAVALMHPDGSAVVVVLNRSSKDVPLTIKDPAVGFLETISPGYSIHTYLWRRQ
notes: also called Fab HC-GS3-GBA
B3: Fab GS3-ASM (other)
light: B1 light
heavy: EVQLVQSGAEVKKPGESLKISCKGSGYSFMNYWLGWVRQMPGKGLEWMGDIYPGGDYPTYSEKFKVQVTISADKSISTAYLQLSSLKASDTAMYYCARSGNYDEVAYWGQGTLVTVSSASTKGPSVFPLAPSSKSTSGGTAALGCLVKDYFPEPVTVSWNSGALTSGVHTFPAVLQSSGLYSLSSVVTVPSSSLGTQTYICNVNHKPSNTKVDKKVEPKSCDKTHTGGGGSGGGGSGGGGSLSDSRVLWAPAEAHPLSPQGHPARLHRIVPRLRDVFGWGNLTCPICKGLFTAINLGLKKEPNVARVGSVAIKLCNLLKIAPPAVCQSIVHLFEDDMVEVWRRSVLSPSEACGLLLGSTCGHWDIFSSWNISLPTVPKPPPKPPSPPAPGAPVSRILFLTDLHWDHDYLEGTDPDCADPLCCRRGSGLPPASRPGAGYWGEYSKCDLPLRTLESLLSGLGPAGPFDMVYWTGDIPAHDVWHQTRQDQLRALTTVTALVRKFLGPVPVYPAVGNHESTPVNSFPPPFIEGNHSSRWLYEAMAKAWEPWLPAEALRTLRIGGFYALSPYPGLRLISLNMNFCSRENFWLLINSTDPAGQLQWLVGELQAAEDRGDKVHIIGHIPPGHCLKSWSWNYYRIVARYENTLAAQFFGHTHVDEFEVFYDEETLSRPLAVAFLAPSATTYIGLNPGYRVYQIDGNYSGSSHVVLDHETYILNLTQANIPGAIPHWQLLYRARETYGLPNTLPTAWHNLVYRMRGDMQLFQTFWFLYHKGHPPSEPCGTPCRLATLCAQLSARADSPALCRHLMPDGSLPEAQSLWPRPLFC
notes: also called Fab HC-GS3-ASM
B4: Fab GS3-ARSA (other)
light: B1 light
heavy: EVQLVQSGAEVKKPGESLKISCKGSGYSFMNYWLGWVRQMPGKGLEWMGDIYPGGDYPTYSEKFKVQVTISADKSISTAYLQLSSLKASDTAMYYCARSGNYDEVAYWGQGTLVTVSSASTKGPSVFPLAPSSKSTSGGTAALGCLVKDYFPEPVTVSWNSGALTSGVHTFPAVLQSSGLYSLSSVVTVPSSSLGTQTYICNVNHKPSNTKVDKKVEPKSCDKTHTGGGGSGGGGSGGGGSRPPNIVLIFADDLGYGDLGCYGHPSSTTPNLDQLAAGGLRFTDFYVPVSLCTPSRAALLTGRLPVRMGMYPGVLVPSSRGGLPLEEVTVAEVLAARGYLTGMAGKWHLGVGPEGAFLPPHQGFHRFLGIPYSHDQGPCQNLTCFPPATPCDGGCDQGLVPIPLLANLSVEAQPPWLPGLEARYMAFAHDLMADAQRQDRPFFLYYASHHTHYPQFSGQSFAERSGRGPFGDSLMELDAAVGTLMTAIGDLGLLEETLVIFTADNGPETMRMSRGGCSGLLRCGKGTTYEGGVREPALAFWPGHIAPGVTHELASSLDLLPTLAALAGAPLPNVTLDGFDLSPLLLGTGKSPRQSLFFYPSYPDEVRGVFAVRTGKYKAHFFTQGSAHSDTTADPACHASSSLTAHEPPLLYDLSKDPGENYNLLGGVAGATPEVLQALKQLQLLKAQLDAAVTFGPSQVARGEDPALQICCHPGCTPRPACCHCPDPHA
notes: also called Fab HC-GS3-ARSA
B5: Fab GS3-SGSH (other)
light: B1 light
heavy: EVQLVQSGAEVKKPGESLKISCKGSGYSFMNYWLGWVRQMPGKGLEWMGDIYPGGDYPTYSEKFKVQVTISADKSISTAYLQLSSLKASDTAMYYCARSGNYDEVAYWGQGTLVTVSSASTKGPSVFPLAPSSKSTSGGTAALGCLVKDYFPEPVTVSWNSGALTSGVHTFPAVLQSSGLYSLSSVVTVPSSSLGTQTYICNVNHKPSNTKVDKKVEPKSCDKTHTGGGGSGGGGSGGGGSRPRNALLLLADDGGFESGAYNNSAIATPHLDALARRSLLFRNAFTSVSSCSPSRASLLTGLPQHQNGMYGLHQDVHHFNSFDKVRSLPLLLSQAGVRTGIIGKKHVGPETVYPFDFAYTEENGSVLQVGRNITRIKLLVRKFLQTQDDRPFFLYVAFHDPHRCGHSQPQYGTFCEKFGNGESGMGRIPDWTPQAYDPLDVLVPYFVPNTPAARADLAAQYTTVGRMDQGVGLVLQELRDAGVLNDTLVIFTSDNGIPFPSGRTNLYWPGTAEPLLVSSPEHPKRWGQVSEAYVSLLDLTPTILDWFSIPYPSYAIFGSKTIHLTGRSLLPALEAEPLWATVFGSQSHHEVTMSYPMRSVQHRHFRLVHNLNFKMPFPIDQDFYVSPTFQDLLNRTTAGQPTGWYKDLRHYYYRARWELYDRSRDPHETQNLATDPRFAQLLEMLRDQLAKWQWETHDPWVCAPDGVLEEKLSPQCQPLHNEL
notes: also called Fab HC-GS3-SGSH
B6: Fab GS3-PPT1 (other)
light: B1 light
heavy: EVQLVQSGAEVKKPGESLKISCKGSGYSFMNYWLGWVRQMPGKGLEWMGDIYPGGDYPTYSEKFKVQVTISADKSISTAYLQLSSLKASDTAMYYCARSGNYDEVAYWGQGTLVTVSSASTKGPSVFPLAPSSKSTSGGTAALGCLVKDYFPEPVTVSWNSGALTSGVHTFPAVLQSSGLYSLSSVVTVPSSSLGTQTYICNVNHKPSNTKVDKKVEPKSCDKTHTGGGGSGGGGSGGGGSDPPAPLPLVIWHGMGDSCCNPLSMGAIKKMVEKKIPGIYVLSLEIGKTLMEDVENSFFLNVNSQVTTVCQALAKDPKLQQGYNAMGFSQGGQFLRAVAQRCPSPPMINLISVGGQHQGVFGLPRCPGESSHICDFIRKTLNAGAYSKVVQERLVQAEYWHDPIKEDVYRNHSIFLADINQERGINESYKKNLMALKKFVMVKFLNDSIVDPVDSEWFGFYRSGQAKETIPLQETSLYTQDRLGLKEMDNAGQLVFLATEGDHLQLSEEWFYAHIIPFLG
notes: also called Fab HC-GS3-PPT1

target: T2, recombinant human TfR (r human TfR: Sino Biological Inc.), hTfR extracellular region with a histidine tag at … (human, UniProt P02786 89-760); test: BLI (Octet RED96), His-tagged TfR ECD on Ni-NTA sensor
T2 construct: Bought from Sino Biological; also called r human TfR-ECD (Histag); recombinant hTfR; not shown: histidine tag at the N-terminus

Row | kon | Kd | koff | Binder
1 | 293000 M⁻¹ s⁻¹ |  |  | B1
2 | 623000 M⁻¹ s⁻¹ | < 1 pM | < 1e-07 s⁻¹ | B2
3 | 526000 M⁻¹ s⁻¹ | 68.9 pM | 3.63e-05 s⁻¹ | B3
4 | 670000 M⁻¹ s⁻¹ |  |  | B4
5 | 721000 M⁻¹ s⁻¹ | < 1 pM | < 1e-07 s⁻¹ | B5
6 | 417000 M⁻¹ s⁻¹ | < 1 pM | < 1e-07 s⁻¹ | B6

Target: T1, recombinant monkey TfR (r monkey TfR: …)
Test: as above

Row | Kd | koff | kon | Binder
7 | 1320 pM | 0.000292 s⁻¹ | 221000 M⁻¹ s⁻¹ | B1
8 |  |  | 299000 M⁻¹ s⁻¹ | B2
9 | 2000 pM | 0.000549 s⁻¹ | 274000 M⁻¹ s⁻¹ | B3
10 | 1090 pM | 0.000281 s⁻¹ | 258000 M⁻¹ s⁻¹ | B4
11 | < 1 pM | < 1e-07 s⁻¹ | 388000 M⁻¹ s⁻¹ | B5
